Where two headings read alike, the source gives them in different places.
How the values were obtained:
Test in all cases: native MS
[1] = molecular target: the molecule itself
[2] = molecular target: the molecule itself; remark: listed apart in the source
[3] = molecular target: δδ′ subcomplex (E. coli, UniProt P28630 1-343; P28631 1-334)

- binding result [3]: binds
B1: γ subunit (DnaX) of the E. coli clamp loader (natural protein, UniProt P06710-2 1-431, looked up)
chain: MSYQVLARKWRPQTFADVVGQEHVLTALANGLSLGRIHHAYLFSGTRGVGKTSIARLLAKGLNCETGITATPCGVCDNCREIEQGRFVDLIEIDAASRTKVEDTRDLLDNVQYAPARGRFKVYLIDEVHMLSRHSFNALLKTLEEPPEHVKFLLATTDPQKLPVTILSRCLQFHLKALDVEQIRHQLEHILNEEHIAHEPRALQLLARAAEGSLRDALSLTDQAIASGDGQVSTQAVSAMLGTLDDDQALSLVEAMVEANGERVMALINEAAARGIEWEALLVEMLGLLHRIAMVQLSPAALGNDMAAIELRMRELARTIPPTDIQLYYQTLLIGRKELPYAPDRRMGVEMTLLRALAFHPRMPLPEPEVPRQSFAPVAPTAVMTPTQVPPQPQSAPQQAPTVPLPETTSQVLAARQQLQRVQGATKAKKE
- stoichiometry N [1]: 3
- stoichiometry N [2]: 4

Source: publication PMC4869865 (Structure (London, England : 1993), 2010)
